Measurements as given in PMC12397995 (Blood, 2025).

Legend:
[1] = target: T1, Factor VIIa (UniProt P08709 61-212; P08709 213-466, gamma-carboxyglutamate (γ35 printed; GLA domain)); experiment: cryo-EM structure
T1 sequence (looked up) 1: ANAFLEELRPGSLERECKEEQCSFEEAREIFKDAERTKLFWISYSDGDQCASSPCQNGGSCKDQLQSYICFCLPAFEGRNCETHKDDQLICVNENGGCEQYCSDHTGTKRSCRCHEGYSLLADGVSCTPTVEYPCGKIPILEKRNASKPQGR
T1 sequence (looked up) 2: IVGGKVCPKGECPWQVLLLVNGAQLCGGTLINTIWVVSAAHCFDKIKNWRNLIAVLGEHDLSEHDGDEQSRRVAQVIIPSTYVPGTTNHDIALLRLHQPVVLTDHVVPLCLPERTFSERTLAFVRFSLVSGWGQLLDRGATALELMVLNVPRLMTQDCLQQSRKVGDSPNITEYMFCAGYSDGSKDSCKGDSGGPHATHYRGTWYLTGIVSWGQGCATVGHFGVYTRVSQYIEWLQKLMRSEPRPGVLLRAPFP

[2] = target: Recombinant, membrane-anchored tissue factor (TF residues 3–244) fused to E. coli maltose-binding protein (UniProt P13726); experiment: cryo-EM structure

Binder | binding result [1] | binding result [2]
Recombinant, membrane-anchored tissue factor (TF residues 3–244) fused to E. coli maltose-binding protein (receptor, UniProt P13726 35-276, looked up) TTNTVAAYNLTWKSTNFKTILEWEPKPVNQVYTVQISTKSGDWKSKCFYTTDTECDLTDEIVKDVKQTYLARVFSYPAGNVESTGSAGEPLYENSPEFTPYLETNLGQPTIQSFEQVGTKVNVTVEDERTLVRRNNTFLSLRDVFGKDLIYTLYYWKSSSSGKKTAKTNTNEFLIDVDKGENYCFSVQAVIPSRTVNRKSTDSPVECMGQEKGEFREIFYIIGAVVFVVIILVIILAISLHK | binds | –
Fab fragment of the non-inhibitory anti-TF antibody 10H10 (Fab, V domains shown) VH: QVHLQQSGAELMKPGASVKISCKASGYTFITYWIEWVKQRPGHGLEWIGDILPGSGSTNYNENFKGKATFTADSSSNTAYMQLSSLTSEDSAVYYCARSGYYGNSGFAYWGQGTLVTVSA VL: DIVMTQSPSSLTVTAGEKVTMSCKSSQSLLSSGNQKNYLTWYQQIPGQPPKLLIYWASTRESGVPDRFTGSGSGTDFTLTINSVQAEDLAVYYCQNDYTYPLTFGAGTKLELK | – | binds
